Patent US20230365640A1 (ACADEMIA SINICA, published 2023)

Molecular target: recombinant SARS-CoV-2 RBD (His-tagged SARS-CoV-2 RBD fusion protein) (SARS-CoV-2, UniProt P0DTC2 328-585)
Assay: ELISA

Binder | binding result
CLEC5A.Fc protein (Fc fusion) PQIFNKSNDGFTTTRSYGTVSQIFGSSSPSPNGFITTRSYGTVCPKDWEFYQARCFFLSTSESSWNESRDFCKGKGSTLAIVNTPEKLKFLQDITDAEKYFIGLIYHREEKRWRWINNSVFNGNVTNQNQNFNCATIGLTKTFDAASCDISYRRICEKNAK | no binding (tested: 50 µg/ml)
Dectin-1.Fc (CLEC7A) protein (Fc fusion) TMAIWRSNSGSNTLENGYFLSRNKENHSQPTQSSLEDSVTPTKAVKTTGVLSSPCPPNWIIYEKSCYLFSMSLNSWDGSKRQCWQLGSNLLKIDSSNELGFIVKQVSSQPDNSFWIGLSRPQTEVPWLWEDGSTFSSNLFQIRTTATQENPSPNCVWIHVSVIYDQLCSVPSYSICEKKFSM | no binding (tested: 50 µg/ml)
Dectin-2.Fc (CLEC6A) protein (Fc fusion) TYHFTYGETGKRLSELHSYHSSLTCFSEGTKVPAWGCCPASWKSFGSSCYFISSEEKVWSKSEQNCVEMGAHLVVFNTEAEQNFIVQQLNESFSYFLGLSDPQGNNNWQWIDKTPYEKNVRFWHLGEPNHSAEQCASIVFWKPTGWGWNDVICETRRNSICEMNKIYL | no binding (tested: 50 µg/ml)
Mincle.Fc (CLEC4F) protein (Fc fusion) RCVVTFRIFQTCDEKKFQLPENFTELSCYNYGSGSVKNCCPLNWEYFQSSCYFFSTDTISWALSLKNCSAMGAHLVVINSQEEQEFLSYKKPKMREFFIGLSDQVVEGQWQWVDGTPLTKSLSFWDVGEPNNIATLEDCATMRDSSNPRQNWNDVTCFLNYFRICEMVGINPLNKGKSL | no binding (tested: 50 µg/ml)
